Source: PMC3368264

Molecular target: Leishmania major N5,N10-methylenetetrahydrofolate dehydrogenase/cyclohydrolase (Leishmania major (Friedlin strain))
Test: SEC; Superdex 200 26/60 in buffer A (50 mM Tris-HCl, 250 mM NaCl, 20 mM imidazole, pH 7.5); main peak at approximately 65 kDa (subunit 31.9 kDa)

Substance: Leishmania major N5,N10-methylenetetrahydrofolate dehydrogenase/cyclohydrolase (enzyme)
- stoichiometry N: 2
